The values that follow come from ChEMBL document CHEMBL1138864, “Synthesis of novel caspase inhibitors for characterization of the active caspase proteome in vitro and in vivo” (J Med Chem, 2006).

What all share (conditions): Homo sapiens
Substrate in data set [1]: Cc1cccc(C)c1C(=O)OCC(=O)[C@H](CC(=O)O)NC(=O)[C@H](CCCCNC(=O)CCCCCNC(=O)CCCCC1SC[C@@H]2NC(=O)N[C@H]12)NC(=O)[C@H](CCC(=O)O)NC(=O)OCc1ccccc1
Description: Inhibition of human caspase 7
Substrate in data set [2]: Cc1cccc(C)c1C(=O)OCC(=O)[C@H](CC(=O)O)NC(=O)[C@H](CCCCNC(=O)CCCCCNC(=O)CCCCC1SC[C@@H]2NC(=O)N[C@H]12)NC(=O)[C@H](CCC(=O)O)NC(=O)OCc1ccccc1
This is another data set of the same source.
Description: Inhibition of human caspase 6

Substrate in data set [3]: Cc1cccc(C)c1C(=O)OCC(=O)[C@H](CC(=O)O)NC(=O)[C@H](CCCCNC(=O)CCCCCNC(=O)CCCCC1SC[C@@H]2NC(=O)N[C@H]12)NC(=O)[C@H](CCC(=O)O)NC(=O)OCc1ccccc1
This is another data set of the same source.
Description: Inhibition of human caspase 8

Substrate in data set [4]: Cc1cccc(C)c1C(=O)OCC(=O)[C@H](CC(=O)O)NC(=O)[C@H](CCCCNC(=O)CCCCCNC(=O)CCCCC1SC[C@@H]2NC(=O)N[C@H]12)NC(=O)[C@H](CCC(=O)O)NC(=O)OCc1ccccc1
This is another data set of the same source.
Description: Inhibition of human caspase 2

Substrate in data set [5]: Cc1cccc(C)c1C(=O)OCC(=O)[C@H](CC(=O)O)NC(=O)[C@H](CCCCNC(=O)CCCCCNC(=O)CCCCC1SC[C@@H]2NC(=O)N[C@H]12)NC(=O)[C@H](CCC(=O)O)NC(=O)OCc1ccccc1
This is another data set of the same source.
Description: Inhibition of human caspase 1

Substrate in data set [6]: Cc1cccc(C)c1C(=O)OCC(=O)[C@H](CC(=O)O)NC(=O)[C@H](CCCCNC(=O)CCCCCNC(=O)CCCCC1SC[C@@H]2NC(=O)N[C@H]12)NC(=O)[C@H](CCC(=O)O)NC(=O)OCc1ccccc1
The source holds these as a separate data set.
Description: Inhibition of human caspase 3

Substrate in data set [7]: Cc1cccc(C)c1C(=O)OCC(=O)[C@H](CC(=O)O)NC(=O)[C@H](CCCCNC(=O)CCCCCNC(=O)CCCCC1SC[C@@H]2NC(=O)N[C@H]12)NC(=O)[C@H](CCC(=O)O)NC(=O)OCc1ccccc1
This is another data set of the same source.
Description: Inhibition of human caspase 4

Substrate in data set [8]: Cc1cccc(C)c1C(=O)OCC(=O)[C@H](CC(=O)O)NC(=O)[C@H](CCCCNC(=O)CCCCCNC(=O)CCCCC1SC[C@@H]2NC(=O)N[C@H]12)NC(=O)[C@H](CCC(=O)O)NC(=O)OCc1ccccc1
Description: Inhibition of human caspase 5
The source holds these as a separate data set.

B1: Caspase-7 (Homo sapiens), P55210 (protein)
chain: MADDQGCIEEQGVEDSANEDSVDAKPDRSSFVPSLFSKKKKNVTMRSIKTTRDRVPTYQYNMNFEKLGKCIIINNKNFDKVTGMGVRNGTDKDAEALFKCFRSLGFDVIVYNDCSCAKMQDLLKKASEEDHTNAACFACILLSHGEENVIYGKDGVTPIKDLTAHFRGDRCKTLLEKPKLFFIQACRGTELDDGIQADSGPINDTDANPRYKIPVEADFLFAYSTVPGYYSWRSPGRGSWFVQALCSILEEHGKDLEIMQILTRVNDRVARHFESQSDDPHFHEKKQIPCVVSMLTKELYFSQ
Turning to B1, the Km in data set [1] amounted to 230 µM.

B2: Caspase-6 (Homo sapiens), P55212 (protein)
chain: MSSASGLRRGHPAGGEENMTETDAFYKREMFDPAEKYKMDHRRRGIALIFNHERFFWHLTLPERRGTCADRDNLTRRFSDLGFEVKCFNDLKAEELLLKIHEVSTVSHADADCFVCVFLSHGEGNHIYAYDAKIEIQTLTGLFKGDKCHSLVGKPKIFIIQACRGNQHDVPVIPLDVVDNQTEKLDTNITEVDAASVYTLPAGADFLMCYSVAEGYYSHRETVNGSWYIQDLCEMLGKYGSSLEFTELLTLVNRKVSQRRVDFCKDPSAIGKKQVPCFASMLTKKLHFFPKSN
For B2, the Km in data set [2] is 220 µM.

B3: Caspase-8 (Homo sapiens), Q14790 (protein)
chain: MDFSRNLYDIGEQLDSEDLASLKFLSLDYIPQRKQEPIKDALMLFQRLQEKRMLEESNLSFLKELLFRINRLDLLITYLNTRKEEMERELQTPGRAQISAYRVMLYQISEEVSRSELRSFKFLLQEEISKCKLDDDMNLLDIFIEMEKRVILGEGKLDILKRVCAQINKSLLKIINDYEEFSKERSSSLEGSPDEFSNGEELCGVMTISDSPREQDSESQTLDKVYQMKSKPRGYCLIINNHNFAKAREKVPKLHSIRDRNGTHLDAGALTTTFEELHFEIKPHDDCTVEQIYEILKIYQLMDHSNMDCFICCILSHGDKGIIYGTDGQEAPIYELTSQFTGLKCPSLAGKPKVFFIQACQGDNYQKGIPVETDSEEQPYLEMDLSSPQTRYIPDEADFLLGMATVNNCVSYRNPAEGTWYIQSLCQSLRERCPRGDDILTILTEVNYEVSNKDDKKNMGKQMPQPTFTLRKKLVFPSD
In the case of B3, the Km in data set [3] was determined as 140 µM.

B4: Caspase-2 (Homo sapiens), P42575 (protein)
chain: MAAPSAGSWSTFQHKELMAADRGRRILGVCGMHPHHQETLKKNRVVLAKQLLLSELLEHLLEKDIITLEMRELIQAKVGSFSQNVELLNLLPKRGPQAFDAFCEALRETKQGHLEDMLLTTLSGLQHVLPPLSCDYDLSLPFPVCESCPLYKKLRLSTDTVEHSLDNKDGPVCLQVKPCTPEFYQTHFQLAYRLQSRPRGLALVLSNVHFTGEKELEFRSGGDVDHSTLVTLFKLLGYDVHVLCDQTAQEMQEKLQNFAQLPAHRVTDSCIVALLSHGVEGAIYGVDGKLLQLQEVFQLFDNANCPSLQNKPKMFFIQACRGDETDRGVDQQDGKNHAGSPGCEESDAGKEKLPKMRLPTRSDMICGYACLKGTAAMRNTKRGSWYIEALAQVFSERACDMHVADMLVKVNALIKDREGYAPGTEFHRCKEMSEYCSTLCRHLYLFPGHPPT
Regarding B4, the Michaelis-Menten constant (Km) in data set [4] was determined as 560 µM.

B5: Caspase-1 (Homo sapiens), P29466 (protein)
chain: MADKVLKEKRKLFIRSMGEGTINGLLDELLQTRVLNKEEMEKVKRENATVMDKTRALIDSVIPKGAQACQICITYICEEDSYLAGTLGLSADQTSGNYLNMQDSQGVLSSFPAPQAVQDNPAMPTSSGSEGNVKLCSLEEAQRIWKQKSAEIYPIMDKSSRTRLALIICNEEFDSIPRRTGAEVDITGMTMLLQNLGYSVDVKKNLTASDMTTELEAFAHRPEHKTSDSTFLVFMSHGIREGICGKKHSEQVPDILQLNAIFNMLNTKNCPSLKDKPKVIIIQACRGDSPGVVWFKDSVGVSGNLSLPTTEEFEDDAIKKAHIEKDFIAFCSSTPDNVSWRHPTMGSVFIGRLIEHMQEYACSCDVEEIFRKVRFSFEQPDGRAQMPTTERVTLTRCFYLFPGH
On to B5, for which the Km in data set [5] amounted to 100 µM.

B6: Caspase-3 (Homo sapiens), P42574 (protein)
chain: MENTENSVDSKSIKNLEPKIIHGSESMDSGISLDNSYKMDYPEMGLCIIINNKNFHKSTGMTSRSGTDVDAANLRETFRNLKYEVRNKNDLTREEIVELMRDVSKEDHSKRSSFVCVLLSHGEEGIIFGTNGPVDLKKITNFFRGDRCRSLTGKPKLFIIQACRGTELDCGIETDSGVDDDMACHKIPVEADFLYAYSTAPGYYSWRNSKDGSWFIQSLCAMLKQYADKLEFMHILTRVNRKVATEFESFSFDATFHAKKQIPCIVSMLTKELYFYH
On to B6, for which, in data set [6], the Km came out at 74 µM.

B7: Caspase-4 (Homo sapiens), P49662 (protein)
chain: MAEGNHRKKPLKVLESLGKDFLTGVLDNLVEQNVLNWKEEEKKKYYDAKTEDKVRVMADSMQEKQRMAGQMLLQTFFNIDQISPNKKAHPNMEAGPPESGESTDALKLCPHEEFLRLCKERAEEIYPIKERNNRTRLALIICNTEFDHLPPRNGADFDITGMKELLEGLDYSVDVEENLTARDMESALRAFATRPEHKSSDSTFLVLMSHGILEGICGTVHDEKKPDVLLYDTIFQIFNNRNCLSLKDKPKVIIVQACRGANRGELWVRDSPASLEVASSQSSENLEEDAVYKTHVEKDFIAFCSSTPHNVSWRDSTMGSIFITQLITCFQKYSWCCHLEEVFRKVQQSFETPRAKAQMPTIERLSMTRYFYLFPGN
Regarding B7, the Km in data set [7] came to 1100 µM.

B8: Caspase-5 (Homo sapiens), P51878 (protein)
chain: MAEDSGKKKRRKNFEAMFKGILQSGLDNFVINHMLKNNVAGQTSIQTLVPNTDQKSTSVKKDNHKKKTVKMLEYLGKDVLHGVFNYLAKHDVLTLKEEEKKKYYDTKIEDKALILVDSLRKNRVAHQMFTQTLLNMDQKITSVKPLLQIEAGPPESAESTNILKLCPREEFLRLCKKNHDEIYPIKKREDRRRLALIICNTKFDHLPARNGAHYDIVGMKRLLQGLGYTVVDEKNLTARDMESVLRAFAARPEHKSSDSTFLVLMSHGILEGICGTAHKKKKPDVLLYDTIFQIFNNRNCLSLKDKPKVIIVQACRGEKHGELWVRDSPASLALISSQSSENLEADSVCKIHEEKDFIAFCSSTPHNVSWRDRTRGSIFITELITCFQKYSCCCHLMEIFRKVQKSFEVPQAKAQMPTIERATLTRDFYLFPGN
On to B8, for which the Km in data set [8] is 2500 µM.
